This is an account of results in patent US6946133.

Assay [1] deals with T1, HLA class I-A2 molecule (human), P04439.
T1 chain: not shown
Put plainly: T2 binding assay, peptide 50 µg/ml for 24 h, anti-HLA-A2 mAb, flow cytometry; cut off for positivity 100.

Assay [2] has the same target. As to the kind of experiment: T2 cell binding assay, peptide 50 µg/ml, HLA-A2 upregulation read with MAb A2,69 by flow cytometry. For orientation: In flow cytometry, cells or beads pass a laser one at a time.

B1: prostate specific antigen oligo-epitope peptide (PSA-OP) (peptide)
peptide: FLTPKKLQCVDLHVISNDVCAQVHPQKVTK
modifications: not checked
As for B1, in assay [1], the T2 binding, relative fluorescence (mean intensity) was determined as 63.3.

B2: PSA peptide 146-154 (peptide)
peptide: KLQCVDLHV
modifications: not checked
Regarding B2, the mean channel fluorescent intensity in assay [2] amounted to 224.

B3: PSA peptide 141-150 (peptide)
peptide: FLTPKKLQCV
modifications: not checked
B3 returned a T2 binding, relative fluorescence (mean intensity) in assay [1] of 128. The mean channel fluorescent intensity in assay [2] is 230.
